Four molecules from US20090088386A1 (KAGOSHIMA UNIVERSITY, published 2009) can be followed below.

For experiment [1], the target named is T1, pepB6-L1 peptide phage clone (not fully specified (C-terminus)).
T1 construct: not shown: phage gene III protein of the Ph.D.-12 library phage (New England Biolabs)
T1 peptide: GMLDIFAPIRHV
In words: phage ELISA, scFv coated on plate, phage detected with anti-M13 antibody. In general terms: ELISA stands for enzyme-linked immunosorbent assay.

Experiment [2] has as its target T2, pepB6-L10 peptide phage clone (not fully specified (C-terminus)).
T2 construct: not shown: phage gene III protein of the Ph.D.-12 library phage (New England Biolabs)
T2 peptide: TSPILDVLTPPR
The experiment is described as above.

Experiment [3] deals with T3, pepD1-L20 peptide phage clone.
T3 construct: not shown: phage gene III protein of the Ph.D.-12 library phage (New England Biolabs)
T3 peptide: NPLDFYAPSILP
The description is as above.

Experiment [4] deals with T4, pepB7-C15 (pepD1-C5, C7, C20) peptide phage clone.
T4 construct: also called pepD1-C7; pepD1-C20; not shown: phage gene III protein of the Ph.D.-C7C library phage (New England Biolabs)
T4 peptide: CYGTKPWMC
The experiment is described as above.

The target in experiment [5] is T5, pepD1-C2, C13 peptide phage clone.
T5 construct: also called pepD1-C13; not shown: phage gene III protein of the Ph.D.-C7C library phage (New England Biolabs)
T5 peptide: CYGTEPWMC
The description is as above.

Experiment [6] deals with T6, pepD1-C18 peptide phage clone.
T6 construct: not shown: phage gene III protein of the Ph.D.-C7C library phage (New England Biolabs)
T6 peptide: CFGHEPWMC
Described as above.

The target in experiment [7] is T7, pepD1-C3 peptide phage clone.
T7 construct: not shown: phage gene III protein of the Ph.D.-C7C library phage (New England Biolabs)
T7 peptide: CQGHLPWMC
Described as above.

In experiment [8] the target is T8, pepD1-C11 peptide phage clone.
T8 construct: not shown: phage gene III protein of the Ph.D.-C7C library phage (New England Biolabs)
T8 peptide: CFGHKPWMC
The description is as above.

In experiment [9] the target is T9, pepD1-C8 peptide phage clone.
T9 construct: not shown: phage gene III protein of the Ph.D.-C7C library phage (New England Biolabs)
T9 peptide: CFGRLPWMC
The experiment is described as above.

Experiment [10] has as its target T10, pepD1-C10 peptide phage clone.
T10 construct: not shown: phage gene III protein of the Ph.D.-C7C library phage (New England Biolabs)
T10 peptide: CFGSLPWMC
Described as above.

Experiment [11] deals with T11, pepD1-L5, L9 peptide phage clone.
T11 construct: also called pepD1-L9; not shown: phage gene III protein of the Ph.D.-12 library phage (New England Biolabs)
T11 peptide: GSPFLDLLAPAA
The description is as above.

In experiment [12] the target is T12, pepD1-L6 peptide phage clone.
T12 construct: not shown: phage gene III protein of the Ph.D.-12 library phage (New England Biolabs)
T12 peptide: SSIIDILLPPIY
Described as above.

The target in experiment [13] is T13, pepD1-L7 peptide phage clone.
T13 construct: not shown: phage gene III protein of the Ph.D.-12 library phage (New England Biolabs)
T13 peptide: SILDILSPRLAE
Described as above.

The target of experiment [14] is T14, pepD1-L13 peptide phage clone.
T14 construct: not shown: phage gene III protein of the Ph.D.-12 library phage (New England Biolabs)
T14 peptide: GNTLLDTLVPLI
Described as above.

The target of experiment [15] is T15, amyloid β peptide 1-42 (UniProt P05067 672-713).
T15 construct: domain: Aβ1-42; In the precipitation experiment it stood as oligomer and fibers formed 1.5 hours after dissolution at 40 µM; also called Aβ1-42; Aβ oligomer
In words: precipitation of Aβ oligomer and fibers with streptavidin-magnet beads, Western blot with anti-Aβ antibodies. (In western blotting, separated proteins are transferred to a membrane and probed.)
Experimental: Aβ1-42 was dissolved at a concentration of 40 μM in 20 mM phosphate buffer, pH 7.0. […] After reaction, an aliquot thereof was sampled as a sample before immunoprecipitation (“Before precipitation”), and the remaining sample was reacted with M-280 streptavidin-magnet beads (Dynal Biotech, Oslo, Norway) adjusted to 20 μg/μl on ice for 1 hour at a ratio of 1:1 by liquid volume (final concentration: Aβ [10 μM]/synthesized peptide [10 μM]/beads [10 μg/μl]). After reaction, the beads were precipitated using a magnet to obtain “Supernatant”. To the precipitated beads, PBS was added in a liquid volume equal to the collected supernatant to obtain “Pellet”. Each obtained sample was electrophoresed and subjected to Western blot analysis using anti-Aβ antibodies.
Aβ1-42 was dissolved at a concentration of 40 μM in 20 mM phosphate buffer, pH 7.0.

Experiment [16] deals with T4, pepB7-C15 (pepD1-C5, C7, C20) peptide …. Briefly: biopanning on coated B7 scFv; no ELISA figure is given for B7.
Experimental: Each well was blocked with 0.5% gelatin for 1st panning, 0.25% BSA for 2nd panning, and 0.5% gelatin for 3rd panning as a blocking solution at 4° C. for 14 hours. The 12-mer or C7C peptide phage library was diluted (1.5×10¹² pfu/100 μl) with a blocking solution and then left standing for 30 minutes. Then, absorption operation was performed using control scFv. Specifically, the well coated with control scFv was washed with 0.2% Tween 20/PBS (PBST) three times and reacted at room temperature for 1 hour by the addition of a phage solution. A phage solution that was not bound to control scFv was collected. The well coated with scFv used as a template was reacted at room temperature for 1 hour by the addition of the phage solution. Each well was washed with 0.2% PBST 10 times. After addition of 100 μl of 1 mg/ml BSA/0.1 M glycine hydrochloride, pH 2.2, the mixture was left at room temperature for 5 minutes to thereby collect bound phages. Immediately thereafter, the phages were neutralized by the addition of 15 μl of 1 M Tris-HCl, pH 9.1. E. coli ER2738 was infected with the collected phages for amplification. The amplified phages were used in the 2nd and 3rd rounds of panning (1.5×10¹² pfu/100 μl).

Positions count from the first letter of the chain named. No end group written: not given here.

T15 sequence (P05067 672-713 limits assumed): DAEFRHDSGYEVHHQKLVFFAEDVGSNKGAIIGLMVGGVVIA

B1: B6 scFv (clone B6 described in WO 2005/105998) (scFv, V domains shown)
VH: QVQLVQSGGGVVQPGGSLRLSCAASGFTFSRYAMSWVRQAPGKGLEWVSAMSGSGDTTYYADSVKGRFTISRDNSKKTVYLQMNRLRVEDTAIYYCAKDGRFRNRRSDGFDTWGQGTLVTVSS
VL: SSELTQDPAVSVALGQTVRITCQGDSLRSYYASWYQQKPGQAPVLVIYGKDNRPSGIPDRFSGSSSGNAASLTITGAQAEDEADYYCNSRDTSGNHLVFGGGTKVTVLG
notes: Human single-chain antibody
B1: the binding result in [1] and in experiment [2] was “binds” throughout.

B2: D1 scFv (clone D1 described in WO 2005/105998) (scFv, V domains shown)
VH: QVTLKESGGDLVKPGGSLRLSCAASGFTFRKYYMAWIRQAPGKGPEWLSTISNSGDIIDYADSVRGRFSISRDNAQKSLYLQMTSLRPDDSAIYYCAREYFFSFDVWGRGTLVTVSS
VL: B1 VL with V18I, D51N, N52K, F61I, S65R, A69T, T92S, K104Q, V105L
notes: Human single-chain antibody
Consider B2, for which the binding result in experiment [3], in experiment [4], in experiment [5], in [6], in [7] and in [8] was “binds” throughout. For the same molecule, the binding result in [9], in experiment [10], in [11], in experiment [12], in experiment [13] and in [14] was “binds” each time.
Regarding GSGGGSCGYWRSEWGLCG (also called unrelated peptide) [unrelated control peptide (GSGGGSCGYWRSEWGLCG)], the binding result in [15] is reported as “no binding”.

B3: B7 scFv (clone B7 described in WO 2005/105998) (scFv, V domains shown)
VH: QVQLVQSGGGLVQPGGSQRLSCAASGFGFSNYAVSWVRQAPGTGLEWVAGVNGGGQNTFYADSVKGRFTISRDNSKKTVYLQMNSLRVEDTAIYYCAKDGRFRNRRPDGFDTWGQGTLVTVSS
VL: SSELTQDPNVSVALGQTVRITCQGDTLRNNFPTWYQQKPGQAPVLVFYGKDNRPSGIPDRFSGSRSGTTASLVITGAQAQDEADYYCNSRDSGGHHLVFGGGTKLTVLG
notes: Human single-chain antibody
In the case of B3, the binding result in experiment [16] is reported as “binds”.
